In one experiment the target is HSP-CGFP [GFP: P42212]. Briefly: split reporter (BiFC, NanoBiT); split-GFP reassembly competition assay, GFP variant sg100: E. coli T7 cells co-transformed with the NGFP plasmid, the CGFP plasmid and p17Tet with a competitor or p17Tet-stop; 0.5 mM IPTG and 2% arabinose, overnight to 72 h at 17 °C; fluorescence (arbitrary units) divided by OD600 of cells resuspended in PBS, triplicates.

Experiment [1] concerns the target XD-CGFP (not His-tagged) (measles virus | not stated) (UniProt P03422). The experiment is described as above.
The target of experiment [2] is HSP (hsp70) (Homo sapiens) (UniProt P0DMV8). To be noted: cited from earlier work.

The values that follow come from paper PMC9952896.

By Kd is commonly meant the concentration at which binding is half-saturated.

Chain of UniProt P0DMV8 (P0DMV8 2-641): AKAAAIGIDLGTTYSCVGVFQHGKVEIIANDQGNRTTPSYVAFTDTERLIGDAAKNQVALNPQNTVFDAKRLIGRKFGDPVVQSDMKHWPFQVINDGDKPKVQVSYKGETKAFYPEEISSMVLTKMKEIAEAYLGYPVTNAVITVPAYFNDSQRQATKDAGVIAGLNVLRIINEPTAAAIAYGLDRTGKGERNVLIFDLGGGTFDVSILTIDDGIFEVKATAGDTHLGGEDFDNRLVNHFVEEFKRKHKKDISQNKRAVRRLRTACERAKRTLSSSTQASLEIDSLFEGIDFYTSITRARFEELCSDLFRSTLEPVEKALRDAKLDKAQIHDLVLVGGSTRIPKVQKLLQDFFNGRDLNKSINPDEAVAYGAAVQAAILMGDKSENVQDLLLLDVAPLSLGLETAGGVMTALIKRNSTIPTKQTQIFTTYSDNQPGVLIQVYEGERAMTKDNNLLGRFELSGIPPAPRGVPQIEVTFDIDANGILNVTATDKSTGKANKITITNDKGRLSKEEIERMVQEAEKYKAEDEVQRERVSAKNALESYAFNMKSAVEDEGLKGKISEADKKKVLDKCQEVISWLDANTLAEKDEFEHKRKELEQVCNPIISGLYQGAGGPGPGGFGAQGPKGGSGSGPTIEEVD

Take “NGFP alone (His-NGFP, from the construct NGFP-stop) (from UniProt P42212 1-157) (domain or fragment)”: the fluorescence to OD600 ratio (arbitrary units/OD600) (with HSP-CGFP [GFP: P42212]; in experiment [1]) was 200 each time.

In the experiment with HSP-CGFP [GFP: P42212], “NGFP-471 (His-NGFP-471) (from UniProt P42212 1-157; P04851 471-525) (domain or fragment)” registered a fluorescence signal (fluorescence/OD600) (arbitrary units/OD600) of 300.

As to “Nucleoprotein NTAIL NTAIL (from UniProt P35972)”, the equilibrium dissociation constant (Kd) in experiment [2] was 70 µM.
